{"source": "patent US20170355766A1", "about": "(Xencor, published 2017)", "binders": {"B1": {"name": "G236W (antibody, human IgG1, kappa)", "heavy": "not shown", "light": "DIVMTQSPATLSLSPGERATLSCRSSKSLQNVNGNTYLYWFQQKPGQSPQLLIYRMSNLNSGVPDRFSGSGSGTEFTLTISSLEPEDFAVYYCMQHLEYPITFGAGTKLEIKRTVAAPSVFIFPPSDEQLKSGTASVVCLLNNFYPREAKVQWKVDNALQSGNSQESVTEQDSKDSTYSLSSTLTLSKADYEKHKVYACEVTHQGLSSPVTKSFNRGEC", "notes": "HuAM4G7 IgG1 Fc variant"}, "B2": {"name": "G237N/S267E (antibody, human IgG1, kappa)", "heavy": "not shown", "light": "B1 light", "notes": "HuAM4G7 IgG1 Fc variant"}, "B3": {"name": "G237Q (antibody, human IgG1, kappa)", "heavy": "not shown", "light": "B1 light", "notes": "HuAM4G7 IgG1 Fc variant"}, "B4": {"name": "G237S (antibody, human IgG1, kappa)", "heavy": "not shown", "light": "B1 light", "notes": "HuAM4G7 IgG1 Fc variant"}, "B5": {"name": "G237V (antibody, human IgG1, kappa)", "heavy": "not shown", "light": "B1 light", "notes": "HuAM4G7 IgG1 Fc variant"}, "B6": {"name": "G237Y (antibody, human IgG1, kappa)", "heavy": "not shown", "light": "B1 light", "notes": "HuAM4G7 IgG1 Fc variant"}, "B7": {"name": "H268N (antibody, human IgG1, kappa)", "heavy": "not shown", "light": "B1 light", "notes": "HuAM4G7 IgG1 Fc variant"}, "B8": {"name": "L234D/G236N/S267E (antibody, human IgG1, kappa)", "heavy": "EVQLVESGGGLVKPGGSLKLSCAASGYTFTSYVMHWVRQAPGKGLEWIGYINPYNDGTKYNEKFQGRVTISSDKSISTAYMELSSLRSEDTAMYYCARGTYYYGTRVFDYWGQGTLVTVSSASTKGPSVFPLAPSSKSTSGGTAALGCLVKDYFPEPVTVSWNSGALTSGVHTFPAVLQSSGLYSLSSVVTVPSSSLGTQTYICNVNHKPSNTKVDKKVEPKSCDKTHTCPPCPAPEDLNGPSVFLFPPKPKDTLMISRTPEVTCVVVDVEHEDPEVKFNWYVDGVEVHNAKTKPREEQYNSTYRVVSVLTVLHQDWLNGKEYKCKVSNKALPAPIEKTISKAKGQPREPQVYTLPPSREEMTKNQVSLTCLVKGFYPSDIAVEWESNGQPENNYKTTPPVLDSDGSFFLYSKLTVDKSRWQQGNVFSCSVMHEALHNHYTQKSLSLSPGK", "light": "B1 light", "notes": "HuAM4G7 IgG1 Fc variant"}, "B9": {"name": "L234D/S267E (antibody, human IgG1, kappa)", "heavy": "not shown", "light": "B1 light", "notes": "HuAM4G7 IgG1 Fc variant"}, "B10": {"name": "L234G (antibody, human IgG1, kappa)", "heavy": "not shown", "light": "B1 light", "notes": "HuAM4G7 IgG1 Fc variant"}, "B11": {"name": "L234I (antibody, human IgG1, kappa)", "heavy": "not shown", "light": "B1 light", "notes": "HuAM4G7 IgG1 Fc variant"}, "B12": {"name": "L234P (antibody, human IgG1, kappa)", "heavy": "not shown", "light": "B1 light", "notes": "HuAM4G7 IgG1 Fc variant"}, "B13": {"name": "L234Q (antibody, human IgG1, kappa)", "heavy": "not shown", "light": "B1 light", "notes": "HuAM4G7 IgG1 Fc variant"}, "B14": {"name": "L234S (antibody, human IgG1, kappa)", "heavy": "not shown", "light": "B1 light", "notes": "HuAM4G7 IgG1 Fc variant"}, "B15": {"name": "L234V (antibody, human IgG1, kappa)", "heavy": "not shown", "light": "B1 light", "notes": "HuAM4G7 IgG1 Fc variant"}, "B16": {"name": "L234W/G236D/S239E/S267E (antibody, human IgG1, kappa)", "heavy": "B8 heavy with D238W, N240D, S243E", "light": "B1 light", "notes": "HuAM4G7 IgG1 Fc variant"}, "B17": {"name": "L234W/S239E/S267E (antibody, human IgG1, kappa)", "heavy": "B8 heavy with D238W, N240G, S243E", "light": "B1 light", "notes": "HuAM4G7 IgG1 Fc variant"}, "B18": {"name": "L234Y (antibody, human IgG1, kappa)", "heavy": "not shown", "light": "B1 light", "notes": "HuAM4G7 IgG1 Fc variant"}, "B19": {"name": "L235E (antibody, human IgG1, kappa)", "heavy": "not shown", "light": "B1 light", "notes": "HuAM4G7 IgG1 Fc variant"}, "B20": {"name": "L235H (antibody, human IgG1, kappa)", "heavy": "not shown", "light": "B1 light", "notes": "HuAM4G7 IgG1 Fc variant"}, "B21": {"name": "L235R (antibody, human IgG1, kappa)", "heavy": "not shown", "light": "B1 light", "notes": "HuAM4G7 IgG1 Fc variant"}, "B22": {"name": "L235T/S267E (antibody, human IgG1, kappa)", "heavy": "not shown", "light": "B1 light", "notes": "HuAM4G7 IgG1 Fc variant"}, "B23": {"name": "P329E (antibody, human IgG1, kappa)", "heavy": "not shown", "light": "B1 light", "notes": "HuAM4G7 IgG1 Fc variant"}, "B24": {"name": "S239N (antibody, human IgG1, kappa)", "heavy": "not shown", "light": "B1 light", "notes": "HuAM4G7 IgG1 Fc variant"}, "B25": {"name": "S239Q (antibody, human IgG1, kappa)", "heavy": "not shown", "light": "B1 light", "notes": "HuAM4G7 IgG1 Fc variant"}, "B26": {"name": "S267E/A327D (antibody, human IgG1, kappa)", "heavy": "not shown", "light": "B1 light", "notes": "HuAM4G7 IgG1 Fc variant"}, "B27": {"name": "S267E/H268E/L328F (antibody, human IgG1, kappa)", "heavy": "B8 heavy with D238L, N240G, H272E, L332F", "light": "B1 light", "notes": "HuAM4G7 IgG1 Fc variant"}, "B28": {"name": "S267E/L328H (antibody, human IgG1, kappa)", "heavy": "not shown", "light": "B1 light", "notes": "HuAM4G7 IgG1 Fc variant"}, "B29": {"name": "S267E/L328I (antibody, human IgG1, kappa)", "heavy": "not shown", "light": "B1 light", "notes": "HuAM4G7 IgG1 Fc variant"}, "B30": {"name": "S267E/N325L (antibody, human IgG1, kappa)", "heavy": "not shown", "light": "B1 light", "notes": "HuAM4G7 IgG1 Fc variant"}, "B31": {"name": "S298D (antibody, human IgG1, kappa)", "heavy": "not shown", "light": "B1 light", "notes": "HuAM4G7 IgG1 Fc variant"}, "B32": {"name": "V266D (antibody, human IgG1, kappa)", "heavy": "not shown", "light": "B1 light", "notes": "HuAM4G7 IgG1 Fc variant"}}, "note": "Positions count from the first letter of the chain named. Numbers in names are those of the source."}
{"target": "T1, human FcγRIIb receptor protein (R&D Systems) (human, UniProt P31994 46-217)", "T1 construct": "Analyte injected over antibodies captured on a protein A/G chip (Biacore); also called CD32b", "T1 sequence (looked up)": "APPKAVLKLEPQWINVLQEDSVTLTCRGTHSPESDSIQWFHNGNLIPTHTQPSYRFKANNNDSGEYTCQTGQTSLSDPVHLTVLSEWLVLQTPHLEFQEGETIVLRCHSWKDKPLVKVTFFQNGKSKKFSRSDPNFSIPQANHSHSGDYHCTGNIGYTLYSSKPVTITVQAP", "assay": "SPR (Biacore)", "units": {"Fold FcγRIIb": "fold"}}
{"binder": "B1", "Fold FcγRIIb": 0.147}
{"binder": "B2", "Fold FcγRIIb": 40.5}
{"binder": "B3", "Fold FcγRIIb": 0.147}
{"binder": "B4", "Fold FcγRIIb": 0.147}
{"binder": "B5", "Fold FcγRIIb": 0.147}
{"binder": "B6", "Fold FcγRIIb": 0.33}
{"binder": "B7", "Fold FcγRIIb": 1.17}
{"binder": "B8", "Fold FcγRIIb": 5.11}
{"binder": "B9", "Fold FcγRIIb": 21.7}
{"binder": "B10", "Fold FcγRIIb": 0.147}
{"binder": "B11", "Fold FcγRIIb": 0.108}
{"binder": "B12", "Fold FcγRIIb": 0.0644}
{"binder": "B13", "Fold FcγRIIb": 0.147}
{"binder": "B14", "Fold FcγRIIb": 0.192}
{"binder": "B15", "Fold FcγRIIb": 0.456}
{"binder": "B16", "Fold FcγRIIb": 11.4}
{"binder": "B17", "Fold FcγRIIb": 42.3}
{"binder": "B18", "Fold FcγRIIb": 0.0237}
{"binder": "B19", "Fold FcγRIIb": 0.55}
{"binder": "B20", "Fold FcγRIIb": 0.734}
{"binder": "B21", "Fold FcγRIIb": 5.58}
{"binder": "B22", "Fold FcγRIIb": 2.37}
{"binder": "B23", "Fold FcγRIIb": 0.147}
{"binder": "B24", "Fold FcγRIIb": 1.45}
{"binder": "B25", "Fold FcγRIIb": 0.729}
{"binder": "B26", "Fold FcγRIIb": 21.2}
{"binder": "B27", "Fold FcγRIIb": 344}
{"binder": "B28", "Fold FcγRIIb": 5.17}
{"binder": "B29", "Fold FcγRIIb": 53.4}
{"binder": "B30", "Fold FcγRIIb": 31.5}
{"binder": "B31", "Fold FcγRIIb": 0.797}
{"binder": "B32", "Fold FcγRIIb": 0.147}
{"target": "T2, human V158 FcγRIIIa receptor protein (6xHis and GST tags) (human, UniProt P08637 17-208, limits assumed)", "T2 construct": "also called VIIIa", "T2 sequence (P08637 17-208 F176V limits assumed)": "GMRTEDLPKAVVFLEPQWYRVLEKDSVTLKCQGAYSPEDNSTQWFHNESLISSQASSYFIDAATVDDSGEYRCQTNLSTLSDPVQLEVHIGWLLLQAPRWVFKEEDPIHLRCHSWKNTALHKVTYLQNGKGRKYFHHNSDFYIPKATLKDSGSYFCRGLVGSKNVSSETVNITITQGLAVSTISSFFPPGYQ", "assay": "SPR (Biacore)", "units": {"Fold FcγRIIIaV": "fold"}}
{"binder": "B2", "binding result": "no binding"}
{"binder": "B9", "Fold FcγRIIIaV": 0.14}
{"target": "T3, FcγRIIaR (human, UniProt P12318)", "T3 construct": "recombinant receptor protein with 6xHis and GST tags; also called R131 FcγRIIa", "T3 sequence (receptor, looked up)": "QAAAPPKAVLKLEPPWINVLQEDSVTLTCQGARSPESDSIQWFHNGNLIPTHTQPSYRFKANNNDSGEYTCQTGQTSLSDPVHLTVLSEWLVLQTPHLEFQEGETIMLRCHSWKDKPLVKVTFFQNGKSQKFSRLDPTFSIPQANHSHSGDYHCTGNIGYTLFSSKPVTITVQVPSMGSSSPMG", "assay": "SPR (Biacore)", "units": {"Fold FcγRIIaR": "fold"}}
{"binder": "B1", "Fold FcγRIIaR": 0.0859}
{"binder": "B2", "Fold FcγRIIaR": 61.5}
{"binder": "B3", "Fold FcγRIIaR": 0.0859}
{"binder": "B4", "Fold FcγRIIaR": 0.081}
{"binder": "B5", "Fold FcγRIIaR": 0.0342}
{"binder": "B6", "Fold FcγRIIaR": 0.902}
{"binder": "B7", "Fold FcγRIIaR": 1.79}
{"binder": "B8", "Fold FcγRIIaR": 0.728}
{"binder": "B9", "Fold FcγRIIaR": 12.7}
{"binder": "B10", "Fold FcγRIIaR": 0.0859}
{"binder": "B11", "Fold FcγRIIaR": 0.0554}
{"binder": "B12", "Fold FcγRIIaR": 0.0141}
{"binder": "B13", "Fold FcγRIIaR": 0.0372}
{"binder": "B14", "Fold FcγRIIaR": 0.693}
{"binder": "B15", "Fold FcγRIIaR": 0.134}
{"binder": "B16", "Fold FcγRIIaR": 5.69}
{"binder": "B17", "Fold FcγRIIaR": 98.5}
{"binder": "B18", "Fold FcγRIIaR": 0.0511}
{"binder": "B19", "Fold FcγRIIaR": 0.333}
{"binder": "B20", "Fold FcγRIIaR": 0.756}
{"binder": "B21", "Fold FcγRIIaR": 1.02}
{"binder": "B22", "Fold FcγRIIaR": 3.06}
{"binder": "B23", "Fold FcγRIIaR": 0.0859}
{"binder": "B24", "Fold FcγRIIaR": 0.867}
{"binder": "B25", "Fold FcγRIIaR": 0.853}
{"binder": "B26", "Fold FcγRIIaR": 16.7}
{"binder": "B27", "Fold FcγRIIaR": 253}
{"binder": "B28", "Fold FcγRIIaR": 4.64}
{"binder": "B29", "Fold FcγRIIaR": 74}
{"binder": "B30", "Fold FcγRIIaR": 41.5}
{"binder": "B31", "Fold FcγRIIaR": 1.45}
{"binder": "B32", "Fold FcγRIIaR": 0.704}
{"target": "T4, human FcγRI receptor protein (R&D Systems) (human, UniProt P12314 16-288)", "T4 construct": "also called CD64", "T4 sequence (P12314 16-288 limits assumed)": "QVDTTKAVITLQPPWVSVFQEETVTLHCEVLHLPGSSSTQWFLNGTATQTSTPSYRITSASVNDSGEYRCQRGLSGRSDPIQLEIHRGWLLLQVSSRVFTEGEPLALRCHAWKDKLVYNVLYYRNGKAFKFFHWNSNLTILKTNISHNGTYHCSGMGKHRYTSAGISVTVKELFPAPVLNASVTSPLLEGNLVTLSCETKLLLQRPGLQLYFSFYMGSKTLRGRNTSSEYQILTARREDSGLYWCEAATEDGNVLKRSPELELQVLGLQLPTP", "assay": "SPR (Biacore)", "units": {"Fold FcγRI": "fold"}}
{"binder": "B2", "Fold FcγRI": 0.101}
{"binder": "B9", "Fold FcγRI": 0.0286}
{"binder": "B26", "Fold FcγRI": 1.66}
{"binder": "B27", "Fold FcγRI": 0.991}
